Laboratory results published in US20180155451A1 (published 2018).
Substitutions are numbered along the chain they refer to. Names and notes keep the numbering of the source. Read-outs that look alike come from different tables or passages of the source.

B1: H240-Kn061/H240-Hl071/L73-k0 variant with Y234E introduced into H240-Kn061 (antibody, human IgG1, kappa)
heavy 1: QDQLVQSGAEVKKPGASVKVSCKASGFNIKDTYIQWVRQAPGQGLEWMGRIDPLRKQTKYREKFEGRVTITADTSTNTAYMELSSLRSEDTAVYYCVRSGREFDYWGQGTLVTVSSASTKGPSVFPLAPSSKSTSGGTAALGCLVKDYFPEPVTVSWNSGALTSGVHTFPAVLQSSGLYSLSSVVTVPSSSLGTQTYICNVNHKPSNTKVDKKVEPKSCDKTHTCPPCPAPEEYWGPSVFLFPPKPKDTLMISRTPEVTCVVVDVSDEDPEVKFNWYVDGVEVHNAKTKPREEQYNATYRVVSVLTVLHQDWLNGKEYKCKVSNKALPAPIEKTISKAKGQPREPQVCTLPPSRDELTKNQVSLWCLVKGFYPSDIAVEWESNGQPENNYKTTPPVLDSDGSFFLYSKLTVDKSRWQQGNVFSCSVMHEALHNHYTQKSLSLSP
heavy 2: QDQLVQSGAEVKKPGASVKVSCKASGFNIKDTYIQWVRQAPGQGLEWMGRIDPLRKQTKYREKFEGRVTITADTSTNTAYMELSSLRSEDTAVYYCVRSGREFDYWGQGTLVTVSSASTKGPSVFPLAPSSKSTSGGTAALGCLVKDYFPEPVTVSWNSGALTSGVHTFPAVLQSSGLYSLSSVVTVPSSSLGTQTYICNVNHKPSNTKVDKKVEPKSCDKTHTCPPCPAPELLGGPSVFLFPPKPKDTLMISRTPEVTCVVVDVSHEDPEVKFNWYVDGVEVHNAKTKPREEQYNSTYRVVSVLTVLHQDWLNGKEYKCKVSNDALPMPIEETISKAKGQPREPQVYTLPPSRCELTKNQVSLSCAVKGFYPSDIAVEWESNGQPENNYKTTPPVLDSDGSFFLVSKLTVDKSRWQQGNVFSCSVMHEALHNHYTQKSLSLSP
light: DIQMTQSPSSLSASVGDRVTITCRASQDIHKYIAWYQQKPGQAPRLLIQYTSTLQPGVPSRFSGSGSGTDYTFTISSLQPEDIATYYCLQYEQLRTFGGGTKVEIKRTVAAPSVFIFPPSDEQLKSGTASVVCLLNNFYPREAKVQWKVDNALQSGNSQESVTEQDSKDSTYSLSSTLTLSKADYEKHKVYACEVTHQGLSSPVTKSFNRGEC
notes: Point variant made with H240-Kn061/H240-Hl071/L73-k0 as template; position by EU numbering; also called H240-Kn061 Y234E
B2: H240-Kn037/H240-Hl036/L73-k0 (antibody, human IgG1, kappa)
heavy 1: B1 heavy 1 with E233L, Y234L, W235A, S238D, D267H, A297S, I331E
heavy 2: B1 heavy 2 with G235A, S238D, D325K, M329A, I331E, E333K
light: B1 light
notes: this is a derivation
B3: H240-Kn067/H240-Hl068/L73-k0 (antibody, human IgG1, kappa)
heavy 1: B1 heavy 1 with E233Y, A326D
heavy 2: B1 heavy 2 with D269E, M329K
light: B1 light
notes: Heterodimerized anti-EREG IgG1: L234Y/L235Y/G236W/H268D/S298A/A327D in Kn067, D270E/K326D/A330K/K334E in Hl068; also called H240-Kn067/H240-HI068/L73-k0
B4: H240-Kn061/H240-Hl071/L73-k0 variant with Y235N introduced into H240-Kn061 (antibody, human IgG1, kappa)
heavy 1: B1 heavy 1 with E233Y, Y234N
heavy 2: B1 heavy 2
light: B1 light
notes: Point variant made with H240-Kn061/H240-Hl071/L73-k0 as template; position by EU numbering; also called H240-Kn061 Y235N
B5: H240-Kn120/H240-Hl068/L73-k0 (antibody, human IgG1, kappa)
heavy 1: B1 heavy 1 with E233Y, S238M, A326D
heavy 2: B1 heavy 2 with D269E, M329K
light: B1 light
notes: Heterodimerized anti-EREG IgG1: Kn120 is H240-Kn067 with S239M
B6: H240-Kn126/H240-Hl068/L73-k0 (antibody, human IgG1, kappa)
heavy 1: B1 heavy 1 with E233Y, Y234Q, S238M, A326D
heavy 2: B1 heavy 2 with D269E, M329K
light: B1 light
notes: Heterodimerized anti-EREG IgG1: Kn126 is H240-Kn120 with Y235Q

Experiments:
[1] = biological target: T1, FcgRIIa R extracellular domain with C-terminal His tag (human, UniProt P12318 34-217); assay: SPR (Biacore) KD ratio against the template H240-Kn061/H240-Hl071/L73-k0
T1 construct: extracellular domain; also called FcγRIIa R; FcγRIIa type R; not shown: His tag attached to the C terminus
T1 sequence (looked up): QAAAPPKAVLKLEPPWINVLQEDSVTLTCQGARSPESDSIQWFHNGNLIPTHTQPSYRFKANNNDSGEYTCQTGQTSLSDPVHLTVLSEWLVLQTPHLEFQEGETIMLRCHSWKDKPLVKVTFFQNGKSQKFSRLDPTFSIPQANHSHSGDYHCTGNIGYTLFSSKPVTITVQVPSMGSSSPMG
Protocol: (§1) The antibodies were assessed for the binding to each FcgR. […] The resultant value was defined as relative KD, and used as an assessment indicator.
(§2) Analysis of interaction between obj ective antibody and the FcγR was carried out using Biacore T100 (GE Healthcare), Biacore T200, Biacore A100, and Biacore 4000. HBS-EP+ (GE Healthcare) was used as the running buffer, and the measurement temperature was set to 25° C. Chips produced by immobilizing the antigen peptide by the amine coupling method to a Series S sensor Chip CM5 (GE Healthcare), chips produced by allowing preliminarily biotinylated antigen peptides to interact with and immobilize onto a Series S Sensor Chip SA (certified) (GE Healthcare), chips produced by immobilizing Protein L (ACTIGEN, BioVision) to Series S Sencor Chip CM5 (GE Healthcare), or chips produced by immobilizing Protein A/G (Thermo Scientific) to Series S Sencor Chip CM5 (GE Healthcare) were used. Antibodies of interest were captured onto these chips, and allowed to interact to each FcγR diluted with running buffer.

[2] = biological target: T2, FcgRIIa H extracellular domain with C-terminal His tag (human, UniProt P12318 34-217); assay: as above
T2 construct: extracellular domain; also called FcγRIIa H; FcγRIIa type H; not shown: His tag attached to the C terminus
T2 sequence (looked up): T1 sequence (looked up) with R134H
Protocol: as §1, §2

[3] = biological target: T3, FcgRIIb extracellular domain with C-terminal His tag (human, UniProt P31994 43-217); assay: as above
T3 construct: extracellular domain; also called FcγRIIb; not shown: His tag attached to the C terminus
T3 sequence (looked up): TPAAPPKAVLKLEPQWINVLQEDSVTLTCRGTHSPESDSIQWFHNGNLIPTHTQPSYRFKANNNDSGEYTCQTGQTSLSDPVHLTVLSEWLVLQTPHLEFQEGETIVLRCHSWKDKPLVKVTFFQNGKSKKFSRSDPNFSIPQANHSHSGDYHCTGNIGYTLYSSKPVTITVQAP
Protocol: as §1, §2

[4] = biological target: T4, FcgRIIIa F extracellular domain with C-terminal His tag (human, UniProt P08637 17-208); assay: as above
T4 construct: extracellular domain; also called FcγRIIIa F; FcγRIIIa (F158); not shown: His tag attached to the C terminus
T4 sequence (P08637 17-208): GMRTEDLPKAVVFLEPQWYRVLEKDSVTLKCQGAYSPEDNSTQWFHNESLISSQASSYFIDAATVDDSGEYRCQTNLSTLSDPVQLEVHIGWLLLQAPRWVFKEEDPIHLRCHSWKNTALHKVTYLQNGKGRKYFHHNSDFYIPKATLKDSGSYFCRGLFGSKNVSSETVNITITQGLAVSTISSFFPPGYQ
Protocol: as §1, §2

[5] = biological target: T5, FcgRIIIa V extracellular domain with C-terminal His tag (human, UniProt P08637 17-208); assay: as above
T5 construct: extracellular domain; also called FcγRIIIa V; FcγRIIIa (V158); not shown: His tag attached to the C terminus
T5 sequence (P08637 17-208 F176V): as the sequence (P08637 17-208) above, with F160V counted along it
Protocol: as §1, §2

FcgRIa = biological target: T6, FcgRIa (human, UniProt P12314 16-292); assay: SPR (Biacore), antibody captured on chip, FcgR extracellular domain as analyte
T6 construct: extracellular domain; Expressed in FreeStyle293 cells and purified; used as analyte in Biacore; also called FcγRIa; FcγRI; not shown: His tag attached to the C terminus
T6 sequence (P12314 16-292): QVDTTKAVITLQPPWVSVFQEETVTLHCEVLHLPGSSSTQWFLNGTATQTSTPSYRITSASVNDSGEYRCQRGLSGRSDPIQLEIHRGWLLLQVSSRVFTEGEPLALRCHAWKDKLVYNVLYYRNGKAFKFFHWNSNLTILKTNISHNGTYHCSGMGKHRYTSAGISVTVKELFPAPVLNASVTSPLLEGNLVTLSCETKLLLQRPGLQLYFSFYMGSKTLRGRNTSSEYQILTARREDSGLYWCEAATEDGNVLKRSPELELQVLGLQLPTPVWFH
Protocol: (§3) Specifically, H240-Kn120 (SEQ ID NO: 99) resulting from introduction of S239M into H240-Kn067 and H240-Kn126 (SEQ ID NO: 100) resulting from introduction of Y235Q into H240-Kn120 were prepared according to the method described in Reference Example 1. […] Those described above were assayed for the binding to each FcgR according to the method described in Reference Example 8.
as §2, with “buffer. To regenerate and repeatedly use the chip, the antibodies captured onto the chip were washed off by reacting 10 mM glycine-HCl, pH 1.5.” for “buffer.”

FcgRIIa R [6] = biological target: T7, FcgRIIa R (human, UniProt P12318 34-217); assay: as above
T7 construct: extracellular domain; also called FcγRIIa R; FcγRIIa type R; not shown: His tag attached to the C terminus
T7 sequence (looked up): T1 sequence (looked up)
Protocol: as §3
as §2, with “buffer. To regenerate and repeatedly use the chip, the antibodies captured onto the chip were washed off by reacting 10 mM glycine-HCl, pH 1.5.” for “buffer.”

FcgRIIa H [7] = biological target: T8, FcgRIIa H (human, UniProt P12318 34-217); assay: as above
T8 construct: extracellular domain; also called FcγRIIa H; FcγRIIa type H; not shown: His tag attached to the C terminus
T8 sequence (looked up): T1 sequence (looked up) with R134H
Protocol: as §3
as §2, with “buffer. To regenerate and repeatedly use the chip, the antibodies captured onto the chip were washed off by reacting 10 mM glycine-HCl, pH 1.5.” for “buffer.”

FcgRIIb = biological target: T9, FcgRIIb (human, UniProt P31994 43-217); assay: as above
T9 construct: extracellular domain; Expressed in FreeStyle293 cells and purified; used as analyte in Biacore; also called FcγRIIb; CD32B; not shown: His tag attached to the C terminus
T9 sequence (looked up): T3 sequence (looked up)
Protocol: as §3
as §2, with “buffer. To regenerate and repeatedly use the chip, the antibodies captured onto the chip were washed off by reacting 10 mM glycine-HCl, pH 1.5.” for “buffer.”

FcgRIIIa F [8] = biological target: T10, FcgRIIIa F (human, UniProt P08637 17-208); assay: as above
T10 construct: extracellular domain; also called FcγRIIIa F; not shown: His tag attached to the C terminus
T10 sequence (P08637 17-208): as the sequence (P08637 17-208) above
Protocol: as §3
as §2, with “buffer. To regenerate and repeatedly use the chip, the antibodies captured onto the chip were washed off by reacting 10 mM glycine-HCl, pH 1.5.” for “buffer.”

FcgRIIIa V [9] = biological target: T11, FcgRIIIa V (human, UniProt P08637 17-208); assay: as above
T11 construct: extracellular domain; also called FcγRIIIa V; not shown: His tag attached to the C terminus
T11 sequence (P08637 17-208 F176V limits assumed): as the sequence (P08637 17-208) above, with F160V counted along it
Protocol: as §3
as §2, with “buffer. To regenerate and repeatedly use the chip, the antibodies captured onto the chip were washed off by reacting 10 mM glycine-HCl, pH 1.5.” for “buffer.”

FcgRIIa R [10] = biological target: T7, FcgRIIa R; assay: as above; remark: listed apart in the source
Protocol: as §2, with “buffer. To regenerate and repeatedly use the chip, the antibodies captured onto the chip were washed off by reacting 10 mM glycine-HCl, pH 1.5.” for “buffer.”

FcgRIIa H [11] = biological target: T8, FcgRIIa H; assay: as above; remark: listed apart in the source
Protocol: as §2, with “buffer. To regenerate and repeatedly use the chip, the antibodies captured onto the chip were washed off by reacting 10 mM glycine-HCl, pH 1.5.” for “buffer.”

FcgRIIIa F [12] = biological target: T10, FcgRIIIa F; assay: as above; remark: listed apart in the source
Protocol: as §2, with “buffer. To regenerate and repeatedly use the chip, the antibodies captured onto the chip were washed off by reacting 10 mM glycine-HCl, pH 1.5.” for “buffer.”

FcgRIIIa V [13] = biological target: T11, FcgRIIIa V; assay: as above; remark: listed apart in the source
Protocol: as §2, with “buffer. To regenerate and repeatedly use the chip, the antibodies captured onto the chip were washed off by reacting 10 mM glycine-HCl, pH 1.5.” for “buffer.”

Binder	relative KD (KD of H240-Kn061/H240-Hl071/L73-k0 / KD of variant) [1]	relative KD (KD of H240-Kn061/H240-Hl071/L73-k0 / KD of variant) [2]	relative KD (KD of H240-Kn061/H240-Hl071/L73-k0 / KD of variant) [3]	relative KD (KD of H240-Kn061/H240-Hl071/L73-k0 / KD of variant) [4]	relative KD (KD of H240-Kn061/H240-Hl071/L73-k0 / KD of variant) [5]	Kd (FcgRIa) [nM]	Kd (FcgRIIa R [6]) [nM]	Kd (FcgRIIa H [7]) [nM]	Kd (FcgRIIb) [nM]	Kd (FcgRIIIa F [8]) [nM]	Kd (FcgRIIIa V [9]) [nM]	Kd (FcgRIIa R [10]) [nM]	Kd (FcgRIIa H [11]) [nM]	Kd (FcgRIIIa F [12]) [nM]	Kd (FcgRIIIa V [13]) [nM]
B1	1.4	0.7	0.5	1.9	1.6	–	–	–	–	–	–	–	–	–	–
B2	–	–	–	–	–	0.098	29	46	380	21	6.8	–	–	–	–
B3	–	–	–	–	–	0.26	49	94	370	7.1	1.6	49	94	7.1	1.6
B4	1	0.7	0.7	1.3	2	–	–	–	–	–	–	–	–	–	–
B5	–	–	–	–	–	0.37	17	59	150	2.4	0.66	–	–	–	–
B6	–	–	–	–	–	0.4	76	170	520	3.7	0.64	–	–	–	–
